In patent publication US8624002B2, “Prostaglandin E2 binding proteins and uses thereof” (AbbVie, Inc., priority 2008, dated 2014):

Tests used:
[1] = Intrinsic thermodynamic stability by DSC; type: physicochemical; details: for Tm1 (° C.): 0.79 mg/mL, pH 6, 10 mM citrate, 10 mM phosphate; for Tm2 (° C.) / Tm3 (° C.): same buffer
Procedure: The thermal stability of the anti-PGE2 antibodies was assessed using a DSC instrument. The DSC instrument used was an automated VP-DSC equipment with Capillary Cell (Microcal, GE Healthcare Ltd./Microcal, Buckinghamshire, UK). Unfolding of molecules was studied applying a 1° C./minute scan rate over a 25° C.-95° C. temperature range for samples at 1 mg/mL. Additional measurement parameters applied were a fitting period of 16 seconds, a pre-scan wait time of 10 minutes, and measurements were performed in none-feedback mode. Per individual measurement, 420 μL of sample/blank were filled into the DSC measurement sample holder, with a plate fill scheme as provided below. The thermograms obtained were fitted to a non two state model to obtain the midpoint temperatures and enthalpies of the different transitions.
(§1) The stability of a series of clones (i.e., anti-PGE2 antibodies) of the parent anti-PGE2 antibody was assessed by using intrinsic thermodynamic clone stability determination using DSC (0.79 mg/mL clone concentration, formulated at pH 6 in a 10 mM citrate, 10 mM phosphate buffer) and by accelerated stability screening (0.79 mg/mL clone concentration, formulated at pH 6 in a 10 mM citrate, 10 mM phosphate buffer, for 7 days at 50° C.) where clone stability was monitored with SEC (Table 15).

[2] = PGE2 competition ELISA, format not stated (biotin-PGE2 or ^3H-PGE2); type: binding; details: humanized antibodies table
Procedure: Competition enzyme linked immunosorbent assays were performed to determine prostaglandin binding specificity for antibodies that bind prostaglandin E2, according to at least one of the two following methods.
ELISA plates (Costar 3369, Corning, N.Y.) were coated with 50 μl/well of anti-host Fc IgG (Sigma, St. Louis, Mo.) at 2 μg/ml in PBS (Invitrogen, Carlsbad, Calif.). Following an overnight incubation at 4° C., the plate was blocked with 200 μl Superblock (Pierce #37535, Rockford, Ill.). The IgG samples were diluted to 6 μg/ml in Assay Buffer (10% Superblock in PBS containing 0.05% Surfactamps (Pierce #37535, Rockford, Ill.). The PGE2-biotinamide was diluted to 3 nM in Assay Buffer. A titration curve in Assay Buffer was prepared for the prostaglandins PGA2 (Cayman Chemicals, Ann Arbor, Mich.), PGD2 (Cayman Chemicals, Ann Arbor, Mich.) and PGE2 (Cayman Chemicals, Ann Arbor, Mich.) starting at 300 nM by a 1:10 serial dilution. The reagents were added to tubes at a volume of 50 μl each/tube and preincubated for 1 hour at room temperature. Following the preincubation, the mix was transferred to the blocked plates and allowed to incubate for 1 hour at room temperature. Next, the plates were washed four times with Tween 20-Tris buffered solution (TTBS). Streptavidin polyhrp40 in Assay Buffer (Fitzgerald Industries, Concord, Mass.) at a 1:5000 dilution was then added to the wells and incubated for 45 minutes at room temperature. A final wash step was performed and the plates were developed using a single step TMB system (Sigma #T8665, Sigma, St. Louis, Mo.) and 100 μl/well 2N H2SO4. Plates were read at 450 nm on a Molecular Devices Spectramax plate reader (Sunnyvale, Calif.). […] IC50 number was determined using GraphPad Prism 5 (GraphPad Software, La Jolla, Calif.). The cross reactivity index was then calculated by IC50 of PGE2/IC50 of other prostaglandin(s).
Alternatively, prostaglandin selectivity was determined using a ^3H-PGE2 competition ELISA. Plates were coated with 50 μL/well of 5 μg/ml of goat anti-human IgG (Fc) (Thermo Scientific # 31170, Hudson, N.H.) or goat anti-mouse IgG (Fc) (Thermo Scientific # 31125, Hudson, N.H.) in PBS and incubated overnight at 4° C. The following day plates were flicked and blotted dry. Plates were blocked with 200 μL/well of Superblock (Thermo Scientific # 37515, Hudson, N.H.), 1 hour at room temperature. Plates were flicked and blotted dry. Monoclonal antibodies were diluted to 0.04 μg/ml in PBST (Abbott Bioresearch Center, Worcester, Mass.)/10% Superblock and 50 μL of each was added to each well (2 ng/well) of the pre-blocked ELISA plate and incubated for 1 hour at room temperature. Wells were washed 3 times with PBS/0.1% Tween-20. ^3H-PGE2 (Perkin Elmer # NET-428, Waltham, Mass.) was diluted in PBST/10% Superblock to 6 nM (2× stock). Each prostaglandin (Cayman Chemicals, Ann Arbor, Mich.) was prepared in PBST+10% Superblock at various concentrations ranging from 2000 μM (2× stock) to 0.00004 μM (2×). Equal volumes of the ^3H-PGE2 solution and of each prostaglandin dilution were mixed. Fifty microliters of this mixture was then added to each well of the plate and incubated for 1 hour at room temperature. Wells were washed manually 6 times with PBST/10% Superblock and 50 μL of scintillation fluid (Perkin Elmer # 6013621, Waltham, Mass.) added to each well. Plates were read using a TopCount reader (Perkin Elmer, Waltham, Mass.) with a 5 minute count delay. IC50 number was determined using GraphPad Prism 5 (GraphPad Software, La Jolla, Calif.). The cross reactivity index was then calculated by IC50 of PGE2/IC50 of other prostaglandin(s)
Several antibodies, named 19C9, 4F10 and 15F10 specific for PGE2 were isolated. […] The specificity of these antibodies for PGE2 was further determined by a competition ELISA with various prostaglandins as described in Example 1.B (Table 2). […]

[3] = Accelerated stability screening monitored by SEC; type: physicochemical; details: SEC
Procedure: Size exclusion chromatography was used to separate proteins based on size. Proteins are carried in an aqueous mobile phase and through a porous stationary phase resin packed in a column. The retention time in the column is a function of the hydrodynamic size of the protein and the size of the pores in the packed resin bed. Smaller molecules can penetrate into smaller pores in the resin and are retained longer than larger molecules. Upon elution from the column the proteins are detected by UV absorbance. The SEC method used a TSK gel guard (TOSOH Biosciences, Montgomeryville, Pa., cat. no. 08543) and a TSK gel G3000SWxL (TOSOH Biosciences, Montgomeryville, Pa., cat. no. 08541). The mobile phase was 100 mM Na2HPO4, 200 mM Na2SO4, pH 7.0. The flow rate was 0.3 mL/minute. Injection volume was 20 μL of 1 mg/mL sample. The column temperature was room temperature. The autosampler temperature was 2-8° C. The total run time was 50 minutes. The detection was based on UV absorbance at 214 nm wavelength, with band width set at 8 nm, using reference wavelength at 360 nm with band width 100 nm.
as §1

[4] = Biotin-PGE2 ELISA (PGE2-biotinamide binding to captured IgG)
[5] = start of stability study, 0.79 mg/mL, pH 6

Molecule | Tm1 (° C.) [1] [°C] | Tm2 (° C.) [1] [°C] | Tm3 (° C.) [1] [°C] | Cross Reactivity Index (%) PGA2 [2] [%] | Cross Reactivity Index (%) PGD2 [2] [%] | Cross Reactivity Index (%) PGE1 [2] [%] | Aggregate (%) ([3]; 7 days storage at 50° C.) | Fragment (%) ([3]; 7 days storage at 50° C.) | Monomer (%) ([3]; 7 days storage at 50° C.) | Fragment (%) ([3]; start of stability study) | Monomer (%) ([3]; start of stability study) | Aggregate (%) [3, 5] [%] | EC50 [4] [pM]
Hu2B5.1: humanized 2B5-8.0; VH SEQ ID NO 60, VL SEQ ID NO 61 (antibody, V domains shown) VH: EVQLVQSGAEVKKPGASVKVSCKASGYTFTKYWLGWVRQAPGQGLEWIGDIYPGYDYTHYNEKFKDRATLTVDTSTSTAYMELRSLRSDDTAVYYCARSDGSSTYWGQGTLVTVSS VL: DVVMTQTPLSLPVTPGEPASISCTSSQNIVHSNGNTYLEWYLQKPGQSPQLLIYKVSNRFSGVPDRFSGSGSGTDFTLKISRVEAEDVGVYYCFQVSHVPYTFGGGTKVEIKR | 72.835 | 75.02 | 82.785 | 0.21 | <0.01 | 16 | 2.5611 | 6.3675 | 91.0715 | 4.4044 | 93.7885 | 1.8071 | 63
Hu2B5.3: humanized 2B5-8.0; VH SEQ ID NO 64, VL SEQ ID NO 65 (antibody, V domains shown) VH: EVQLVQSGAEVKKPGASVKVSCKASGYTFTKYWLGWVRQAPGQGLEWIGDIYPGYDYTHYNEKFKDRATLTVDTSTSTAYMELRSLRSDDTAVYYCARSDGSSTYWGQGTLVTVSS VL: DVLMTQTPLSLPVTPGEPASISCTSSQNIVHSNGNTYLEWYLQKPGQSPQLLIYKVSNRFSGVPDRFSGSGSGTDFTLKISRVEAEDVGVYYCFQVSHVPYTFGGGTKVEIKR | 72.67 | 72.96 | 82.67 | 0.18 | <0.01 | 14 | 2.6042 | 5.044 | 92.3518 | 3.6853 | 94.1987 | 2.116 | 59
Hu2B5.4: humanized 2B5-8.0; VH SEQ ID NO 66, VL SEQ ID NO 67 (antibody, V domains shown) VH: EVQLVQSGAEVKKPGASVKVSCKASGYTFTKYWLGWVRQAPGQGLEWIGDIYPGYDYTHYNEKFKDRATLTVDTSTSTAYMELSSLRSDDTAVYYCARSDGSSTYWGQGTLVTVSS VL: DVLMTQTPLSLPVTPGEPASISCTSSQNIVHSNGNTYLEWYLQKPGQSPQLLIYKVSNRFSGVPDRFSGSGSGTDFTLKISRVEAEDVGVYYCFQVSHVPYTFGGGTKVEIKR | 71.095 | 72.41 | 82.58 | 0.22 | <0.01 | 14 | 2.1689 | 6.5423 | 91.2889 | 3.2146 | 94.5513 | 2.234 | 57
Hu2B5.8: humanized 2B5-8.0; VH SEQ ID NO 74, VL SEQ ID NO 75 (antibody, V domains shown) VH: EVQLVQSGAEVKKPGASVKVSCKASGYTFTKYWLGWVRQAPGQGLEWMGDIYPGYDYTHYNEKFKDRVTLTTDTSTSTAYMELSSLRSDDTAVYYCARSDGSSTYWGQGTLVTVSS VL: DVLMTQTPLSLPVTPGEPASISCTSSQNIVHSNGNTYLEWYLQKPGQSPQLLIYKVSNRFSGVPDRFSGSGSGTDFTLKISRVEAEDVGVYYCFQVSHVPYTFGGGTKVEIKR | 72.96 | 75.33 | 82.83 | 0.20 | <0.01 | 8.5 | 2.5144 | 4.184 | 93.3016 | 3.2904 | 94.5969 | 2.1126 | 87
Hu2B5.2: humanized 2B5-8.0; VH SEQ ID NO 62, VL SEQ ID NO 63 (antibody, V domains shown) VH: EVQLVQSGAEVKKPGASVKVSCKASGYTFTKYWLGWVRQAPGQGLEWIGDIYPGYDYTHYNEKFKDRATLTVDTSTSTAYMELSSLRSDDTAVYYCARSDGSSTYWGQGTLVTVSS VL: DVVMTQTPLSLPVTPGEPASISCTSSQNIVHSNGNTYLEWYLQKPGQSPQLLIYKVSNRFSGVPDRFSGSGSGTDFTLKISRVEAEDVGVYYCFQVSHVPYTFGGGTKVEIKR | 72.845 | 75.08 | 82.67 | 0.18 | <0.01 | 14 | 2.1753 | 4.6755 | 93.1491 | 3.3025 | 94.8516 | 1.846 | 55
